According to publication PMC9400494:

Experiments:
Test in all cases: fluorescence polarization
[1] = tested on: nsp12 RdRP (SARS-CoV-2 (Wuhan-1 strain))
[2] = tested on: nsp8 (SARS-CoV-2 (Wuhan-1 strain))
[3] = tested on: nsp7 (SARS-CoV-2 (Wuhan-1 strain))
[4] = tested on: nsp8L7 (nsp8-GSGSGS-nsp7 fusion) (SARS-CoV-2 (Wuhan-1 strain))

FP primer-template RNA hairpin
Kd [1]: 200 nM | Kd [2]: 200 nM | Kd [3]: 7000 nM | Kd [4]: 200 nM
